Assay results reported in paper PMC9098466, “Substrate recognition and cryo-EM structure of the ribosome-bound TAC toxin of Mycobacterium tuberculosis” (Nature Communications, 2022).

Target: ribosomal protein uS13 of the E. coli 70S ribosome (E. coli (endogenous in MG1655), UniProt P0A7S9 1-118)
Experiment: cryo-EM structure
Settings: both partners purified

B1: HigB^TAC[K95A] toxin of Mycobacterium tuberculosis (enzyme)
chain: MPPPDPAAMGTWKFFRASVDGRPVFKKEFDKLPDQARAALIVLMQRYLVGDLAAGSIKPIRGDILELRWHEANNHFRVLFFRWGQHPVALTAFYANQQKTPKTKIETALDRQKIWKRAFGDTPPI
notes: also called HigB1
  binding result: binds
